Consider twelve sequences from a protein production outcome set (Wang et al. 2014).

The nature of the series: label from the status in PepcDB records.
Regarding “DLLDPETWQFIRDSARHFPPDSDRLPLAEQRALHAGLCRAFRAPLPPDVTLTDRTFGTRPCRLYEPAAPAGTVLFLHGGGFVLGGLDAFDDLCAEIAAGTGLRTVAVDYRLAPEYPHPEDFHDALRAAQAVAQAFPGPLVLMGEDAGGALSASFAHALRGRRALAGQVLVCPMLGGALDRVSALTHATAPMLSRQDVLRMGALRHGGREPAADPTADALRDTDFRGLPPTLIVTAQCDPLTDDGRAYRDAIRAAAGRARWIEEPGLVHGFLRARHRVPRAAASFARILQAASAMAHDR”, the protein production entry is recorded as “failed”.
Next, “QGKLLELVTFVPTEYADAVRQALWQAGAGRLGHYDCCSFSHAGTGTFRAAEGANPFVGAISELHHEAEERISLVLPAYRQGTVLQALHAAHPYELPAVSLIPLANDHPSAGGGIVGDLPSPISEREMLLHIKEVFGLKVLSHSAWRERPLRRMAICGGSGAFMWRRAAQEGADLFLTGEAKYNDFFDAGEHLLLVTIGHYESEEVANELFMRIISQKFPTFATHKSSVATNPVNYL”: “failed”; “MSQKIVILGSGESGVGAALLSKAKGYDTFVSDSSMITEAFIAELQQAGIAFEQGVHSEEKILSAQLIVKSPGIPEKAPIMKLIRSKAIEVISEIEFAYRHIHPGAKFIAITGSNGKTTTTLLTHHILAQLGYSVGLGGNIGTSLARQIIHEKKDVYVLELSSFQLDDMYTFKADVAVLLNITPDHLDRYEYKFENYTASKFRIFQNLTPADYYITYSEDSVIESYKKDHPVDARYVPVSLKQLYSAGAYSDEKTIQIHALDDTVVTCNTEEFPLQGKHNYINIMAALNAAVSIGADIHKSIASIKSFRNAPHRLEFVGSIYGVKFVNDSKATNVDSVWYALDSMKTPVVLIVGGVDKGNDYSQIEALVKEKVHTVVALGKDNSKVLSGFASMVSEIKEAHSMVEAIRIAHDSAKKGDTVLLSPACASFDLFKNYEDRGTQFRNLVIELAG”: “failed”; “MKMVLFSFLLGCCSLLVSAQQPVDYVNPFIGTSNYGTTNPGAICPQGMMSVTPFNVMGSKSNKFDKDSQWWSTPYSADNNFFTGYAHVNLSGVGCPEMGSLLLMPTSGELNVDYHAYGSEYKNEVAHPGYYSNILTKYDIKTEATASMRTGLTRFTFPKGQGNILLNLGEGLTNETGATVRMVSDTEIEGSKLLGTFCYNPQAVFPIYFVMKLSKAPKQAGYWKKQREMKGVEAEWDAYSGKYKLYTKYDREMSGDDIGVWFKYDTEEDEVIEVKMGVSFVSIENARLNMNTEQPDFNFDKVRAAAGKMWNDDLSRVMVEGGTNDDKTIFYTAIYHLLIHPNIIQDVNGEYPMMESLKVGHTTGNRYTVFSLWDTYRNVSTLMTLLYPEKQLDIIRTMIDMYKESGWLPKWELYGRETLTMEGDPSIPYIVDAYMRGLRDYDIETAYEGMCKGATTPGEFNLLRPDNNDYMSKGYVPLREQYDNSVSHALEYYIADWNLSLLADALGKKEDAKLFRERAMGYKHYYCKEFGTLRPILPDGTFYSPFDPKQGENFEPSPGFHEGNAWNYTFYVPHDIKGLAKLMGGQKKFVDKLQMVFDKGYYDMANEPDIAYPYLFSYFKGEAWRTQKLVCELLGKYYHNAPNGLPGNDDTGTMSTWAIFSMMGFYPACPGDLDYVVTSPTFNKVTIRLDEKFYPKGELVIESARKTPEDIYIKEVTAGGKKLKGYTISQDELVNAGTLRFTLENKH”: “failed”.
To “MLKTLLTSDVIQVVSQAKDWRDAIAISCQPLIDNGAVEARYVEAIYRSHEAIGPYYVVGPGIAMPHARPEDGVNRLSLALTVITEGVTFNAEGNDPVKLLIVLAATDSNSHIEAISQLAQLFDTASDVQALLNAKTPQDILSVIARY” belongs “not failed”; to “MAMALFQSAPHSLCILRLSAIGDVCNTIAAVQAIQRQWPQTRITWVTGKLEAELIQSLPDIQVIVFDKKLGWRAYTQLWQQLKSERFDALLHMQYAFRASIATLGIKARYKLGFDAARSQDFQTWFTNVKVPSPDKMHVLDGLLAFVEHLGIRDIEPKWSLTCQPDDLTWAEAQFQPEQPRLVVVPGASKAYKNWTAEGYAAVIEHAQQQGWQVILAGSPAQVERDLAAQVEQALAHPVLNLVGKSTLQQMLALLAKADLVIAPDTGPAHMANAMHTPIIGLYAHHNPERTGPYHYRHYVVSAYQEALLAETGKMPQQVDWRTRVKDPNAMQRITAQQVIAMFERAAADIMATQVND”, “failed”.
Next, “MTPIPLINIPLCNLAGDGYILSEKSQSQNMLRGIVMSETVRVGLLGYGYASKTFHAPLIAGTAGMELVAVSSSNAEKVHADWANLRVEKDPQALFSDPDIDLIVIPTPNDTHFPLAKQALEAGKHVVVDKPFTVTLSQAYDLGAIAERAGKVLSVFHNRRWDSDFLTLKQLLSAGTLGNVVYMESHFDRFRPEVRQRWREDGSEGSGIWYDLGPHLLDQALELFGLPVAIQVDMAQLRPGSKATDYFHATLIYPQRRVILHASMLVAAASARYTVHGTRGSFVKYGLDPQEDRLKAGERPPLADWGQDKHDGVLTLSRDGITAEQTIATIPGNYPAYYAAVRDALLGKGENPVGVNQAIQVMELIELGLLSHEQKKAVALKNSLEHHHHHH”: “failed”; “MTQVSIIVPVLNEESTIHSAVSRLCRDFPDCELIVVDGGSTDATAELAALHATVIGSERGRAKQMNEGARHASGGILWFIHADTAIEPEALGQIRSVLADPAVVAGGLTLRFDRRTPALNYLAWTSNARARRLHHIFGDQAMFIRRTAFDELGGFPDLAIMEDLEMSRRLHRRGPLRLLPATSTASSRRLTAHGTWRMIAFMQYLKLLYFAGADPEAIRARYTAGPRLFPKRNPATLEHHHHHH”: “failed”.
In the case of “MATNSSTEQSLTKKVWNLATTLAGQGIGFTDYITQLTYLLFLKMDAENVEMFGEESAIPTGYQWADLIAFDGLDLVKQYEETLKLLSELDNLIGTIYTKAQNKIDKPVYLKKVITMIDEEQWLIMDGDVKGAIYESILEKNGQDKKSGAGQYFTPRPLIQAMVDCINPQMGETVCDPACGTGGFLLTAYDYMKGQSASKEKRDFLRDKALHGVDNTPLVVTLASMNLYLHGIGTDRSPIVCEDSLEKEPSTLVDVILANPPFGTRPAGSVDINRPDFYVETKNNQLNFLQHMMLMLKTGGRAAVVLPDNVLFEAGAGETIRKRLLQDFNLHTILRLPTGIFYAQGVKANVLFFSKGQPTKEIWFYDYRTDIKHTLATNKLERHHLDDFVSCYNNRVEIYDAENNPQGRWRKYPVDEIIARDKTSLDITWIKPGGEVDDRSLAEL”, the protein production entry was “not failed”.
“NILSLLLHPRLGAVIQQMLEMPGHAWTVESLASIAHMSRASFAQLFRDVSGTTPLAVLTKLRLQIAAQMFSRETLPVVVIAESVGYASESSFHKAFVREFGCTPGEYRERVRQLA”: the protein production result was “not failed”.
To “MNIGNITISVIIPVYNASVTLPHCLESLHKQTYRNLELLFVDDCSTDESLYILTSYAEQFAEIDFTIRILQHERNRGVAAARNTALKCATGDYIYYVDADDSIEPHTLECLVNEINHKGLDIVGHEWYLTFNSNARYMKQPAYTTSVEALRKMMGGVMRWNLWLFLVRRSLYVENDIRFTEGLNMGEDMMVMMKLFICAGKVGIVHRPFYHYRQSNPESLTKIYSQEHIIQVANNVYEVEKYVNASAYADSLIEFIPFLKLNIKLPLLITDDKSHYEQWLECFPEANCYVMNNKLLPLRTRIIQWMAVKRYFILLRLYYRTVFKLVYGIIYKLEHHHHHH” belongs “failed”; to “MFALIILISAIIFGIISYFTGKHAKEVSAVLSGILLLEIIAYSIMRFSSYSGGFISRYSVVISSSLGLSFSIAVSGLTDALLILSAVVILIAVLITDRNYGSAFFGLEMTVLAGLIGLLISRDFLFFYIFWEVVLIPVYFMIGRYGIGNKNSISLKFFVYTHIGSVFILLSIFTLYSQSYVYLASPTFEIGPLMSILPKLSLFYKGFVIFGFLFGFLVKMPSFPIHSWLPDSYYSAPYPGSVILAGAISMMGGYGLFGIMIESYKALDVYVLYLLIALGIISLIYFALTAMFQRNIKKMMAFASASAMGFVTISFAASILETSGIDYSVRALEAAGGMFQIVAHGLIMSLVFSALYYISRNTKTDSVYGLGGIYREAPKLASLTLVGLLASLGLPGFAGFIGEFSIVVGVFQTVSWYIFLIIFGMIITASYHIWTAQRSLYGPYNENLGFIRDINSGEFMILIFLVLVIFVLGIYPNLIFANLVNYTNTSLSISVEPALRTNVVAFLEAHVFEVMQ”, “failed”.
